We go through two molecules from article PMC9242648, “Hypertrophic cardiomyopathy mutations in the pliant and light chain-binding regions of the lever arm of human β-cardiac myosin have divergent effects on myosin function” (eLife, 2022).

Assay [1] addresses T1, human β-cardiac myosin 2-hep heavy chain, wild type (human | ).
T1 chain: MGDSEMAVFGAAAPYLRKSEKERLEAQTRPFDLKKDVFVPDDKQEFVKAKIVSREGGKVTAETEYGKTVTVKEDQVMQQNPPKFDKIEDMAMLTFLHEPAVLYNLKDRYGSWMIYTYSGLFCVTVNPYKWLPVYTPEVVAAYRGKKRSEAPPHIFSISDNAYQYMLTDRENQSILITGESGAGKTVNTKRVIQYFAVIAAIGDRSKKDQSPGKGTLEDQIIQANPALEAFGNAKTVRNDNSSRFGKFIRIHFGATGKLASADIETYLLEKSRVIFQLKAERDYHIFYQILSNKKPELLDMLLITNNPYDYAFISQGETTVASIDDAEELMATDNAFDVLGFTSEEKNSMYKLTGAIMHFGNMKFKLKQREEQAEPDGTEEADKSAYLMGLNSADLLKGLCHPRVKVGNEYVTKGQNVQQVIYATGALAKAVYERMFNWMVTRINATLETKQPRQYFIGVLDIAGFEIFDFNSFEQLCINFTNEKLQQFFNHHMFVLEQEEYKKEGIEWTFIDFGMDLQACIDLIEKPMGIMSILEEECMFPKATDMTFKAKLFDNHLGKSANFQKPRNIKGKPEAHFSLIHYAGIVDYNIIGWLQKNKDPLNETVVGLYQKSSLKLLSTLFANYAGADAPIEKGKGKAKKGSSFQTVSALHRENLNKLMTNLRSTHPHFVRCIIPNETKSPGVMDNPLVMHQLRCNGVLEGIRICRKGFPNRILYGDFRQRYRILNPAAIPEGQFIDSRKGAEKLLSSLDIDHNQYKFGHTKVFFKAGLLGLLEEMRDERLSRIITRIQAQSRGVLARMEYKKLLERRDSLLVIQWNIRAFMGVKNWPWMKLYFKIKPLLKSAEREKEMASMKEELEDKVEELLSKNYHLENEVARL
Put plainly: light chain loading gel assay (Coomassie SDS-PAGE densitometry of the co-purified complex); human RLC purified from E. coli added to myosin held on anti-FLAG resin after depletion of native mouse RLC (>2.5 hr, 4°C); buffer exchanged 5x in a 50 or 100 kDa filter to remove unbound light chains; dilution series 10-1 pmol per lane, 700 nm scan, slope of light chain over slope of heavy chain. The note with it: both partners purified.

The target in assay [2] is T1, human β-cardiac myosin 2-hep heavy …. Put plainly: light chain loading gel assay (Coomassie SDS-PAGE densitometry of the co-purified complex); ELC co-expressed with the 2-hep heavy chain in C2C12 cells and purified through the FLAG tag of the ELC; buffer exchanged 5x in a 50 or 100 kDa filter to remove unbound light chains; dilution series 10-1 pmol per lane, 700 nm scan, slope of light chain over slope of heavy chain. Conditions: partners not purified.

B1: human regulatory light chain (MYL2) (natural protein, UniProt P10916 1-166, looked up)
chain: MAPKKAKKRAGGANSNVFSMFEQTQIQEFKEAFTIMDQNRDGFIDKNDLRDTFAALGRVNVKNEEIDEMIKEAPGPINFTVFLTMFGEKLKGADPEETILNAFKVFDPEGKGVLKADYVREMLTTQAERFSKEEVDQMFAAFPPDVTGNLDYKNLVHIITHGEEKD
notes: human regulatory light chain, MYL2; N-terminal His-TEV tag added; also called RLC; source: E. coli, purified (as in Nag et al., 2017)
For B1, in assay [1], the “RLC/HC ratio (Coomassie band density, light chain over heavy chain)” value amounted to 0.11.

B2: human essential light chain (MYL3) (natural protein)
chain: not shown
notes: human essential light chain, MYL3; N-terminal FLAG tag followed by a TEV protease site; TEV protease cleaved the ELC-myosin complex off the anti-FLAG resin; also called ELC; not shown: FLAG, N-terminal, cleaved
Turning to B2, in assay [2], the “ELC/HC ratio (Coomassie band density, light chain over heavy chain)” value is 0.19.
